# Assay: soluble fraction after stress (log2 fold change); higher = more stays soluble; pooled small domains, quantitative proteomics
# Conditions: stress: pH 4
# How it was run: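 Following acid stress at pH 4, the amount of each small protein domain still soluble was measured in pooled custom libraries by high-throughput quantitative proteomics. Its fold change, on a log2 scale, is higher when more of the domain stayed soluble. This fold change is taken as a measure of aggregation propensity.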
row,Sequence,soluble fraction (log2)
1,HMAFYQDIAVDLRKQIIDGVYPKNSRLPNQAELAKLYTTSRVTIQKALKILQIEGLIEGRQGSGSYVKGP,0.0757
2,HMLLFNVADIVKRAKRVLNFKTDAELAAYLGVSRPTLSNWIARNGIDFPLLLEKLKEIDYNWLLVGKGKPE,-0.114
3,HMGGALSPDFGWLAMIDPDEGRAITLYDIASGEAIAVLDTHEARVAALAWSPDGTRLASGDQNGLIVQWEI,-1.43
4,HMFDKNKPVVVEGENAEVALKKVSKYFNVPTEKLDYTLLGQKSAGLLGIGSKVYQFKVWLKREIP,≥ 0.43
5,HMEDEVYFVPSPASRFNPWIAALASRRVPYRVEYDGAERRIAVPAGYAEKAGEELAAYERINHAWPR,-0.111
6,HMHAPKIIVLTINPDKIRDVIGPGGKMIKSIVAATGVKMDVEDDGKIHISSSDQKAADEAIRMINEITAEA,0.223
7,HMADLSAYAGKEGMTDSVLRPSGKVDIEGHILDAVSRGDFIEKGKRVIVIKAEGSYLVVKKRMP,0.166
8,HMDRRFFVAEENYKRLDVFLSERMEEFTRSRIKKLIDEGHVELNGKSAKAGAEIRPGDEVAAEIPEVKE,0.239
9,HMQVTIGADLAEHAARLDVQISDVVKLIKSGVSEGEIKVGLTKLETRLAHPELALVENKLAYLKALIAES,-0.79
10,HMELNEMEAWSLVSKALRNGTYGAVEEFSRLPPTVQEAVGNPDNLRNWATSDYKAIETVIQSNFIKTY,-0.429
11,HMTPVYLNARQKQILAFLKREEPAKVGDIAHALKTISINTLKKDLLYLRQKNLIESHGVLKGTIYTVK,0.209
12,HMKSPAQAAALKKLWAAIKQNEQGEVVEVLFHNRKLTDAGLVHLKGLANLQTLNLYDTKITGAGLVHL,-0.0712
13,HMYQPLRDVIFETLRKAIVSGDIKPGERLMEVSLANQMGVSRTPVREAIRRLEAEGLVTMTPRKGTHVAE,-0.215
14,HMQNEKLSYFVTETIVTERADLFITKKFPQFSRSQIQKLINSGNITINSNPIKASTEIINKDNIEITIPV,-0.814
15,HMQKMPEMQILPNGKVKLPDFSGINMRKAAELLQYGKLRLQPYGSGTAYQQKPAAGTEVDEGTVVEIWF,0.189
16,HMSTIAAMADPRAWALEMLGFPPGTVKPSKREIQVRFRESLRDVHPDHGGDSRTASASINDLSEARRVLLS,0.0192
17,HMKLRLGVNIDPVATVRNARGSAYPDPVRAAIIAQEAGADGITAHLREDRRHIVDQDITSIIKAIDIPLNF,-0.0902
18,HMVLRPDDVEDSLWREWVSHRKAKRAAVTEGVLKTFRQEATKASFTLADAMRKSIDRGWTGFEAEWVARET,-0.325
19,HMSGVSESIEKKIQYLLLEKPLPLHDLIEAIEIGKEEDRLKVLRSLMDSDTVKIEDDLYHWNA,-0.393
20,HMQTTEDMEINAKVDEYLREMYLWNDEYKTLNLDHNKGYEDFFYDALGSMTTNTLDKKTYVGSDGKTYYNL,-0.933
21,HMGQAVTVPELKGLSFDEAIEKLDDAGLKYEVVDSNYVEDMKPGTVFETLPEAGSRVKPRRIVFLTINAF,-0.689
22,HMTEFWTGPITTVTKANFADWTLDTNQDRITANVWLTRADSKGLFNITPGKETAFDIVDYLSPLDTEWA,-1.82
23,HMSKEGLASLLEDINGLGAIRRKTLIDHFGSVAKIRGARPEEIAALPGMGRKIAEHILASLRED,0.418
24,HMDDEELDALKGIPANEYTQEQIKQISEVFHTLQKNEVKDWLNSLQLRNIELPFELRNEVFSQ,-0.43
25,HMQSMSADDWSEKARVLMSAGIIVMGQEAKEKILNLKSLVPLIEAASASNVSMIDSRTFDELLMIIP,-2

row,Sequence,soluble fraction (log2)
1,HMNPAIYIRKNILNLTQEKLSEYLDVTQPTIHRWEESGVIPAKHQRQIREFASEKGIYWNDSWFFSIPDE,-1.2
2,HMRGESFSTLVSILQEMSARKAAQVLNGLSEGLAVEVLRALPSDVAGDILGRMDAAKAAALMEQLST,-0.9
3,HMQNNTIAFSKFLQEVDNGRVVQVEIQGNNINGILSDGSKFNTYSPNYPALVEKLSEKNVNIVASPV,0.385
4,HMNVWESVDLRQEQHEAKRRLILKQAALLFADRGFHETTIDQIAEALNVTKPTIYYYIESKEDLLYQVA,-0.369
5,HMSAPNPGQMHSWTDTQGRTLQATFIKADATTVTLNWNGRIVPIPLANLNAASQKLARELASAS,-0.0969
6,HMDTYKGFIFEVVDKYFSPTLNQKIGQAKNKQGIVLLQTKPSFTQDPKVLIEELKLIIDRDNLKA,-0.362
7,HMDYSWNFFIGFSVVDKVAGNLGTIEEIDDKTINTLFLVKNDDEDLIIPATEDFVEKIDAKKRILYLNLPE,-1.79
8,HMNAVDLLSPQEQRIFELIGEGMSNRQIADVMYLAEKTVKNYVSNVLMKLGMERRTEAAALAARLDERQK,-0.468
9,HMTRLSSREAQVISLVRDGMTNQQIAERLELSPLTIKNHVQNILRKLDVSNRAQAVAKAVKARLI,0.00472
10,HMIRVVSIEDQPWFVAADVLKSLGMPTDKGVGKYLLALGSDERMLTTHGQIGGKGMAVTTIISESGLY,-0.703
11,HMAYWVVKNNQVSLQINRSNYQITSTARALSNGNLGDEIDVKVLQSGVIKKAVVIGKGQVELLR,0.163
12,HMQPPVDGNEIMEIFGIKGSPVIGVIKSTIKNAILDGIIAPNDREAALELMFRIADENGLKPVVTQTQ,-0.855
13,HMKELFGQRLREQRLKQNLTLEQLAEKANLSPNYVGMVERGLKEPGLATIVKLLNGLNVSADTLL,0.155
14,HMSAPAMTLDSIRSLLNDRDPWVVTQTVEWLVGLGPQVKTILETLTLESSDAARQAQNALDRINVRNYP,-1.08
15,HMDKMVAVPNVRGIEASEAEATLIAQGLFVEVEKSDSEDANVAYGEVYAQTPKAGNRVEEGTTITIKVRTE,0.229
16,HMTLVKRSAMVTAWSEFAGGRVNSKLIALQNGKAGDWIELENPQSGRKLRGRVQSDGSVRLGS,0.017
17,HMGKIFSELTPREIEVVRLIADGLSNQQIAEELFLSNGTVRNHISTILEKTGLEHRTQIAVMWLR,-0.742
18,HMTQMSVLFSELEAKDAATIADKLRERNIPYELSNNGSTILIPQEVLHDTRLSLASEGLPES,0.263
19,HMREELIALYRAIARLSEDEQELLNLFYFARRPLSEIAQLTGMTPGAAKTRLYRARRHLRREMEEDGYG,-0.653
20,HMEKMLENIDLKAAVEALPEREKKVILLRYYRGMTQDAAAKVMKVSQVQISRIEKRAIEILREKL,-0.226
21,HMLHIKKGDTVIVNAGESKGQQGKVLEVLVGKERAIVEGVNMVSKHTKPNAKNPQGGIVKKEAPIHISNLQ,0.0699
22,HMKRDNETRRRIVAAAEELFRAKGLDGVNMRELAEMAGVNKGLLHYYFKTKQALFREILVGQMAL,-0.0908
23,HMDDATDVPYQEFRTQVTSGQVEIAQFNNNTGKISFQSTSGEKFETSGPLELSSDDERLFLENIEDFKFFT,-1.63
24,HMDLDYSGIMNVLNQKYHITFYNNKKIQNLMPKLMIIMGYNSIINEIGHSKSLKALINSFEEKLKSYILT,-0.403
25,HMTNYYTVTFKEGDTVLKEVSVHSGDGVPYAVAPKRDDIVGWSYNGNTYTTDLNTLKIKKEVTFTAVT,0.183

row,Sequence,soluble fraction (log2)
1,HMDHTYKHIELTGSSEKGIEEAVQNALAKASESVQNMRWLEVTDTRGHIEDGRVAHWQVTVKVGFTL,0.22
2,HMKRIHLSDEEKTDLESLHYSSNDGKQRDRIKAVLLRSEGWTVPMISQALRIHETTVTRYLNDYREGKLKN,-0.143
3,HMDPVQLEVIKKLNLLNAQKPKDIYALRDVLSEMFPQSDIRLLLKELLDKGYIYWNGHEVIYSHEMF,-0.431
4,HMGEESIAELISNPKLSDAKRTVILDLLSRGLTVDQIKPYIQSDDPYTAEQLQFELYKLFFTQI,-1.34
5,HMGQVLEGVFRRKANGKNAFIPDGGGEPILVAERNSAHAMDGDRVKATLLARRKHHVREAQVTEILKRSSK,0.0841
6,HMHDLTERQREILQTLASGKMALREILSILSQPPSLRTLRDELYHLKRIGLVDTMGYGRGATWFLTQ,-0.13
7,HMRVVPEILERAVAVFEALGVDRLPSSTLADRLGYDSPEALADVLRPLGVRPKKYRDGKSTARGYLAADLG,-0.284
8,HMGKPPNNRIHRAKRDYALNLVKEHYPDFGPTLAAEKLAEHHGFTVSRETLRKWMIEDGIWLSRKQRR,-0.0217
9,HMFNVKAYEKAVKSYITKRKPLGEALDEEIMDELSVKFGIVDDALEDLFKQIQDAGISIVDKDGNPSPLAL,-1.78
10,HMDDATIKVNIAAKFLNAGNNLFVDIDTTVLEGRVLLTGLVDTQEVRIDAVRLVWEVEGIREVINEIEIG,-2.1
11,HMEDDPIYEQVMIFLLDKQITSAPELERRFKITHQRAIELLAQMEKTGIVSTMGHAGKRDVLT,-0.355
12,HMASLSEREHDVAVLILQGKTYAEIGQAIFISPRTVEHHVASIRRRLEAKSRSDLIAKLRLTIGGTED,-1.15
13,HMQKKEVTVPEVRSKSLKEAAQILSEQNLKYETEPVNVENPDMVVIDQFPKPGGKISEQSVIILYLR,0.146
14,HMSIGLEDLIEQKGVADTDLRPSGWINVGNQRIFVVTEGSYIDQNDNVIILSVDGNRVVVRKI,-0.941
15,HMNKKEQYQNIISNFLEKMSEEDRLIFNMHFFKSINISQIARSIDREGYYVKTKIENLLADLKSLMIGNNL,-1.17
16,HMTEEELLERLDAVITEYKGKPGALIPVLQLAQGIFGYLPEVALKHIARQLDKPYSEVAGVVSFYSFFTT,-0.048
17,HMTVVPNIVNQPEAAGTNLLISSNLKPGNRAVQYSDTVKAGDIISQSPEPGAQATLGGKVDYVISQGPAPT,0.22
18,HMASINRIENKNGKVVYRIIVSLGYDKQGKKLKKTITYNVNQTATKKQQENEALKYALDIEDKIKNGHD,-0.138
19,HMGLSAALKARLREVINEMAKSGAQPKLREWALAEGIGNFAKPETPEAAEAVIAKAQELLAEA,0.429
20,HMKEKDAYTSEILDTLKNAKLLVVEGTVYPLLTRLKNDGLLNYRWEESTSGPPRKYYGLTDEG,-0.449
21,HMISDAEWKIMNVLWEEQPRTMMQITKELQEETGWTKHTVMTYLKRMESKKIIHYVEGEKAKLYYS,-0.136
22,HMTTQVPYTAKLININGGSVVNFRKEPGMNTTIIRTYPVGTEVTVLETGVNWSKVEIDGVTGYVSSYFL,-0.00711
23,HMRTRSDVKRAAIIQAAKDAFQEYGVNATSMDKLAEMASVSKRTVYNHFSAKEELVMHIVKE,0.174
24,HMSIYQYFNISEINSIDDLKKQYFKLAKKYHPDAGGDKVSFQELQNEYEQLTKKILSGAELNADELKTE,-0.163
25,HMVPDVVGKDYALAQAELEGANLVVAKGSSRYDDTLPAGVVLATDPKVGTVVKPGAKVTVILSK,0.268

# Source: the domain aggregation screens of Martell et al. (2025)
